Measurements as given in publication PMC10349087 (Nature Communications, 2023).

Each binder was assayed against SARS-CoV-2 spike receptor-binding domain, ancestral (amino acids 331-529), biotinylated (SARS-CoV-2, ancestral (Wuhan), UniProt P0DTC2, biotin (RBD expression vector co-expressed with BirA-Flag, 100 μM biotin added)) (assay: BLI). Details: both partners purified.

| Binder | Kd [pM] | koff [s⁻¹] | kon [M⁻¹ s⁻¹] |
| --- | --- | --- | --- |
| NIV-11 Fab (Fab, V domains shown) VH: QLVQSGPEVKKPGTSVKVSCKASGFTFYYSAVQWVRQARGQRLEWLGWMAVGSGKANYAQKFQERLTLTRDMSTSTAYMELSSLRSEDTAVYYCAAPNCTGGSCYDGFNLWGQGTVVTVSS VL: EIVLTQSPGTLSLSPGDRAILSCRASQTVNSNYLAWYQQKPGQAPRLLIYGTSSRATGIPDRFSGSGSGTDFTLTISRLEPEDFAVYYCQQYGSSPWLFGQGTKVEIK | 20.8 | 1.12e-06 | 53600 |
| NIV-13 Fab (Fab, V domains shown) VH: EVQLLESGGGLVQPGGSLRLSCAASGFTFSRYALSWVRQAPGKGLEWVSAISGAAITTYYADSVKGRFTISRDDSRNTLFMQMDSLRAEDTAVYYCAKGDYYDSSGYLAEYFPHWGQGTLVTVSS VL: SYELTQPPSVSVSPGQTARITCFADALPKQHAYWYQQKAGQAPVLVIFKDTERPSGIPKRFSGSRSGATVTLTISGVQAEDEADYYCQSTDISGVLFGGGTKLTVL | 7.33 | 1.19e-06 | 163000 |
| NIV-10 Fab (Fab, V domains shown) VH: EVQLVESGGGLVQPGGSLRLSCAASGFTFYSYWMTWVRQAPGKGLEWVANIKHDESESHYVDSVRGRFTISRDNAKNSVYLQMKGLRAEDTAVYYCARDGGYNILTAYYHAPSYWGQGTLVTVSS VL: QSALTQPASVSGSPGQSITISCTGTSSDVGGYNFVSWYRQYPGKAPQLMIYDVSRRPSGDSDRFSGSKSGNTASLTISGLQAEDEAEYHCSSYTGRSPYVVFGGGTKVTVL | 5.42 | 1.24e-06 | 223000 |
| NIV-8 Fab (Fab, V domains shown) VH: EVQLVESGGGVVQPGRSLRLSCAASGFKFSKFAMHWVRQAPGKGPEWVAVISYDGNQYHSADSVKGRFTISRDNSFNTLYLQMNSLGPEDTAVYYCARDGPDTSGYYANIYFDFWGQGTLVTVSS VL: QSVLTQPPSVSGAPGQRVTISCTGSSSNIGAGYDVHWYQQLPGRAPKLLIFDNNNRPSGVPDRFSGSKSGTSASLAITGLQTEDEAYYYCQSYDNSLILAVFGGGTKVTVL | 10.9 | 1.15e-06 | 106000 |
